Article doi:10.1101/2024.12.06.627168

How the values were obtained:
[1] = target: MYC 304-354 RBRIIIMUT (UniProt P01106-1 304-354, R316A;K317A;R331A;R334A;R340A;K341A); assay: fluorescence anisotropy
[2] = target: MYC 304-354 WT (RBRIII) (UniProt P01106-1 304-354); assay: fluorescence anisotropy
Chain of MYC 304-354 WT (RBRIII) (P01106 319-369): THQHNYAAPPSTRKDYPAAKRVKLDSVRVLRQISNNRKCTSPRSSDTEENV

GUGCAUGGGCAUGUGUGCUGUGUGUGUGCAGGCGACCGUAAACA (ssRNA) [PTDSS2 RNA oligo]: no binding [1]; binds [2].
